1 molecule from patent publication US20140099312A1 (Regeneron, published 2014) can be followed below.

The experiment concerns the target hPCSK9(D374Y)-mmh (human, UniProt Q8NBP7 31-692). Kind of experiment: cell-based or functional assay.

B1: H1M300N (antibody, V domains shown)
VH: EMQLVESGGGLVQPGGSLRLSCAASGFTFSSHWMKWVRQAPGKGLEWVANINQDGSEKYYVDSVKGRFTISRDNAKNSLFLQMNSLRAEDTAVYYCARDIVLMVYDMDYYYYGMDVWGQGTTVTVSS
VL: not shown
Consider B1, for which the “IC50, LDL uptake in HepG2 cells” value is 1.1 nM.
